Data as given in IntAct's records for PubMed 24240280.

Assays:
sv2c_human SV2C [1] = biological target: T1, sv2c_human SV2C (UniProt Q496J9)
T1 sequence: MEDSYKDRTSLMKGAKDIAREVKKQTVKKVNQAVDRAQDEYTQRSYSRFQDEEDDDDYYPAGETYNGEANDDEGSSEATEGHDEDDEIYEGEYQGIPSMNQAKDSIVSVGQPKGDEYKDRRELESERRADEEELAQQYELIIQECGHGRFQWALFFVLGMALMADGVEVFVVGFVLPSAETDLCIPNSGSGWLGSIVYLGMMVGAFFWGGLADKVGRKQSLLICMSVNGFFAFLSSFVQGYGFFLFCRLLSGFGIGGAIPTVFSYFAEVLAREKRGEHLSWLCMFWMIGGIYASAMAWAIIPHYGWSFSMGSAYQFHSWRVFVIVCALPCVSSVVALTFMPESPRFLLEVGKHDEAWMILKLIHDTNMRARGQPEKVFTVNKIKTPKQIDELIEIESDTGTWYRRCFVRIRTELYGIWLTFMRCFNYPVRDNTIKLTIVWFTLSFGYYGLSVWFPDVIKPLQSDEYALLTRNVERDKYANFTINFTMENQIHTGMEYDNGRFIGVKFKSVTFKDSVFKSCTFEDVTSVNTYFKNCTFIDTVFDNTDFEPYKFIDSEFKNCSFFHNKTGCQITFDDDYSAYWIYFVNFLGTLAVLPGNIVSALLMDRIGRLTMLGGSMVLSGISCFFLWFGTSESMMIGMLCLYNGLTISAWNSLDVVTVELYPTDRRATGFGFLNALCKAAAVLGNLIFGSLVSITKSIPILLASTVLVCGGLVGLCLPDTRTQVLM

sv2c_human SV2C [2] = biological target: T1, sv2c_human SV2C; remark: listed apart in the source

Row | Substance | effect of a mutation on the interaction (sv2c_human SV2C [1]) | effect of a mutation on the interaction (sv2c_human SV2C [2])
1 | Botulinum neurotoxin type A (Clostridium botulinum) (from UniProt P0DPI0) R1294A | decreasing interaction strength | –
2 | Botulinum neurotoxin type A (Clostridium botulinum) (from UniProt P0DPI0) T1145A;T1146A | disrupting interaction strength | decreasing interaction strength
3 | Botulinum neurotoxin type A (Clostridium botulinum) (from UniProt P0DPI0) R1156E | decreasing interaction strength | –
